This note sets out measurements from PMC11467860.

Where two headings read alike, the source gives them in different places.

What all share (test): EMSA
In general terms: A gel shift assay detects complexes by their altered migration in electrophoresis.

Series [1] deals with T1, Dicer S839F (Homo sapiens, UniProt Q9UPY3 1-1922, S839F).
For series [2], the target named is Dicer S839A (Homo sapiens, UniProt Q9UPY3 1-1922, S839A).
Series [3] deals with T1, Dicer S839F. The source holds these as a separate data set.

T1 sequence (Q9UPY3 whole entry S839F): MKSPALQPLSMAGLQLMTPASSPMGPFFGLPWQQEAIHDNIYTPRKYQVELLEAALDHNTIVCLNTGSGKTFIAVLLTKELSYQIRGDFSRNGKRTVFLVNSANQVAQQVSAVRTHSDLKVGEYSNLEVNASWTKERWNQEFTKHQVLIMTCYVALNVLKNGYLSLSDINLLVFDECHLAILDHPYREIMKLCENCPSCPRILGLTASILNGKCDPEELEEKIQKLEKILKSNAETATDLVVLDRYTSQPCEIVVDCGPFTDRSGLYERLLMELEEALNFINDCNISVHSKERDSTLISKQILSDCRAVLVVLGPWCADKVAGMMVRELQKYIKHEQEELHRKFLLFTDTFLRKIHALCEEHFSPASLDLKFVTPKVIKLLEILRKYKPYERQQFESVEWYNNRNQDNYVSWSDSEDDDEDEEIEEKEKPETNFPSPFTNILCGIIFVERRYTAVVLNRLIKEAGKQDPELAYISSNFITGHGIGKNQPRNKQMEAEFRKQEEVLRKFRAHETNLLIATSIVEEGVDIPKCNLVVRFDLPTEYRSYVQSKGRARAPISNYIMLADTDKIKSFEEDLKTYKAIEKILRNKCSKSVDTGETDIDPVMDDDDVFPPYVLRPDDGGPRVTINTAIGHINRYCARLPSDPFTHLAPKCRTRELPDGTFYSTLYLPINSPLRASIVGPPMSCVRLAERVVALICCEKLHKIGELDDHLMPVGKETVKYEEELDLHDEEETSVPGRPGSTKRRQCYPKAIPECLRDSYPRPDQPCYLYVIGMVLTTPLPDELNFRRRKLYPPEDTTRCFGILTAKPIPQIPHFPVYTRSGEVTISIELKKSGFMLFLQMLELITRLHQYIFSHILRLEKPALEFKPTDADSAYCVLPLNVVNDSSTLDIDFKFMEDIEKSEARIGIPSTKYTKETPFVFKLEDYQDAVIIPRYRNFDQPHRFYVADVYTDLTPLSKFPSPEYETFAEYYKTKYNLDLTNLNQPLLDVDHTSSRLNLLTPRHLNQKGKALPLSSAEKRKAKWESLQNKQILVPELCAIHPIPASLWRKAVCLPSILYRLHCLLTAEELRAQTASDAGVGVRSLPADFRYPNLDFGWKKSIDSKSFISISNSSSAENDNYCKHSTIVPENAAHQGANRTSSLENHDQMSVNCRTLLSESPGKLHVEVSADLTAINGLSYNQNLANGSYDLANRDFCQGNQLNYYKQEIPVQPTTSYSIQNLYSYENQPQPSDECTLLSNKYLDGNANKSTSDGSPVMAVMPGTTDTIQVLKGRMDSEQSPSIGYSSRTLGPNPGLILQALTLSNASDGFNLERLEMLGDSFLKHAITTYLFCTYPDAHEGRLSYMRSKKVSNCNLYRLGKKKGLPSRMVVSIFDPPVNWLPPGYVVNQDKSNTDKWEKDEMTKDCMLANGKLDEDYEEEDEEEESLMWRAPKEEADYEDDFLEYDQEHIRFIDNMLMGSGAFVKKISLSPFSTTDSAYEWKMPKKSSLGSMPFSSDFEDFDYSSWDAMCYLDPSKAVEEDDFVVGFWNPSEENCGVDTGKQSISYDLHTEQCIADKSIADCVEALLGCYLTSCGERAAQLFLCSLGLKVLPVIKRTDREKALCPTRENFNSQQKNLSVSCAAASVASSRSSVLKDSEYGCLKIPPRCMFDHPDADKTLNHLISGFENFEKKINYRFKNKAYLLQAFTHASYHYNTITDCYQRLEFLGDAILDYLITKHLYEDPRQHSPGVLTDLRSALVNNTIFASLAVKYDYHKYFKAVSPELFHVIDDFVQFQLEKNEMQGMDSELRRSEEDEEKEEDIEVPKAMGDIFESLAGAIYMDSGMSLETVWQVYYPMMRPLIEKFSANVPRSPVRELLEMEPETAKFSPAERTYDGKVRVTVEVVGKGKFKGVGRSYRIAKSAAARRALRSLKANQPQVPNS
Sequence of Dicer S839A (Q9UPY3 whole entry S839A): as the sequence (Q9UPY3 whole entry S839F) above, with F839A counted along it

B1: snord37 (structured_RNA)
RNA: AUUCGUGAUGACUGAUCAUUUCUUCACUUUGACCAGAUGUCUACUGAAGAAAGCCUGCGUCUGAGG
With B1, in series [1], the binding result is given as “binds”.

B2: pre-miR-21 (structured_RNA)
RNA: UAGCUUAUCAGACUGAUGUUGACUGUUGAAUCUCAUGGCAACACCAGUCGAUGGGCUGUC
modifications: 5' phosphate
As for B2, the figures for the binding result in series [2] and in series [3] were “binds” and “no binding”, respectively.
